Assay results reported in paper PMC10909901.

Legend:
[1] = target: AtWRKY22-YFP (Arabidopsis thaliana) (UniProt O04609); test: FRET or BRET
[2] = target: RRS1-R-YFP (Arabidopsis thaliana) (UniProt C4B7M5); test: FRET or BRET
Chain of UniProt C4B7M5 (C4B7M5 whole entry): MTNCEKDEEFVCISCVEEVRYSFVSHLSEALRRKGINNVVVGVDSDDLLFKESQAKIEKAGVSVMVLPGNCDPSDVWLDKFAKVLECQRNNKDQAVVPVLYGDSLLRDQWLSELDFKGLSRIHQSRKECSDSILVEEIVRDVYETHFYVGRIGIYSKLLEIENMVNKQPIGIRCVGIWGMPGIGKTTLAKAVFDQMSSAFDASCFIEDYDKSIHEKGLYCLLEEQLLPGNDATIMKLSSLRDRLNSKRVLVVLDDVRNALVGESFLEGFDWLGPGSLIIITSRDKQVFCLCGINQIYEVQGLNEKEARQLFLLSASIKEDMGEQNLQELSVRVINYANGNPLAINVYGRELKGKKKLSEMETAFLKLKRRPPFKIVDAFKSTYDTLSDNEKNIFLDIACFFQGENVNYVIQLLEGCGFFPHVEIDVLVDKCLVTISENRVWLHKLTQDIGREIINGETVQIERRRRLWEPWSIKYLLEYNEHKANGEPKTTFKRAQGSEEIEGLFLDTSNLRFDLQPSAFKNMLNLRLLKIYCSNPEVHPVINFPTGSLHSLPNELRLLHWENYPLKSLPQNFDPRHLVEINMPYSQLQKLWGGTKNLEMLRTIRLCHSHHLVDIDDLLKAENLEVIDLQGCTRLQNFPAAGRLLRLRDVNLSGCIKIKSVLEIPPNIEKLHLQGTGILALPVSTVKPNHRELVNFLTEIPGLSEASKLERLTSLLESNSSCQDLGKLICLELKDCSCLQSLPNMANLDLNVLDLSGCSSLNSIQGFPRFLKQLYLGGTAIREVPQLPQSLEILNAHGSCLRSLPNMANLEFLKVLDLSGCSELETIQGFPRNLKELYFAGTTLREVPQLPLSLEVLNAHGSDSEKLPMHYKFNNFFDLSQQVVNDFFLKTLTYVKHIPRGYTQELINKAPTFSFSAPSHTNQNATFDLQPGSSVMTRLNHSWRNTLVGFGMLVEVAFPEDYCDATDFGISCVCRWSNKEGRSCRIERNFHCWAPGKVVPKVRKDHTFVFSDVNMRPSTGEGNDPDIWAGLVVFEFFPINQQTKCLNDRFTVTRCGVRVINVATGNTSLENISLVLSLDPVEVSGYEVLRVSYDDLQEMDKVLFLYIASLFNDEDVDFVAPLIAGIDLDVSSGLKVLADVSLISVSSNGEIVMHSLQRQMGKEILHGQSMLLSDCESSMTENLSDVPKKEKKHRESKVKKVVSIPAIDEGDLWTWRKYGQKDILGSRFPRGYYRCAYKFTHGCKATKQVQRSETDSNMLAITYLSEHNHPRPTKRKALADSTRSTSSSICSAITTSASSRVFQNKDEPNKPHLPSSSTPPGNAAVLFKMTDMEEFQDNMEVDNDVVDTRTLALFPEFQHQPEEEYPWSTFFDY

Chain of UniProt O04609 (O04609 whole entry): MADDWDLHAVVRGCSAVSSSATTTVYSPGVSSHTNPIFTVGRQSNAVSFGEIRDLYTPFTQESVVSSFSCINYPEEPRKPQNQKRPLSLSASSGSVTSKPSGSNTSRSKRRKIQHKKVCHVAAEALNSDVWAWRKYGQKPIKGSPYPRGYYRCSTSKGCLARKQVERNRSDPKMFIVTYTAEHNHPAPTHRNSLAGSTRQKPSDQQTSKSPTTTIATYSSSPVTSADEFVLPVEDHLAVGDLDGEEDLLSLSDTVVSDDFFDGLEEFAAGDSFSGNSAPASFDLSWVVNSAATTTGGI

| Substance | FRET efficiency E [1] | mean CFP donor lifetime T in the presence of the acceptor [1] | FRET efficiency E [2] | mean CFP donor lifetime T in the presence of the acceptor [2] | Δt (decrease of donor lifetime) [2] | Δt (decrease of donor lifetime) [1] |
| --- | --- | --- | --- | --- | --- | --- |
| XopJ6^C409A-CFP (natural protein) | 9.67% | 3.36 ns | 12.1% | 3.27 ns | 452 ps |  |
| XopJ6_(CN06)-CFP (natural protein) | 9.49% | 3.48 ns | 15% | 3.27 ns | 578 ps | 365 ps |
